From patent US20050037969A1 (ARBOR VITA, published 2005)
Ends that are not written are not given here. * marks the point of attachment. Biotin = O=C1N[C@H]2[C@H](CS[C@H]2CCCCC(=O)*)N1

What was measured:
Assay in all cases: A/G assays
[1] = target: T1, MINT3 PDZ-GST fusion protein
T1 construct: Order of GST and PDZ part and limits not seen in the excerpts
T1 chain: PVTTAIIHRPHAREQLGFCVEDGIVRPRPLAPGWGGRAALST

[2] = target: T2, GST-LIM protein PDZ domain fusion protein (Human, UniProt Q96HC4 2-85)
T2 construct: also called Human LIM protein; not shown: glutathione S-transferase encoded by vector pGEX-3X (Pharmacia)
T2 sequence: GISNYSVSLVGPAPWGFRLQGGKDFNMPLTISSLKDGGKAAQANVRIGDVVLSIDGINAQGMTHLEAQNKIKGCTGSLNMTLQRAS

[3] = target: T3, K559 PDZ-GST fusion protein (Homo sapiens (Human), UniProt Q9Y6V0 4489-4593)
T3 construct: Order of GST and PDZ part and limits not seen in the excerpts
T3 sequence: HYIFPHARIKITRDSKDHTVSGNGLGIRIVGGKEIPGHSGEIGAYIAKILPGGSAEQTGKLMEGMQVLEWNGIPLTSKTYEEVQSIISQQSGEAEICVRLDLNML

[4] = target: T4, GST-PDZK1 fusion protein (PDZ domains 2-4) (Homo sapiens, UniProt Q5T2W1 134-457)
T4 construct: not shown: glutathione S-transferase encoded by vector pGEX-3X (Pharmacia)
T4 sequence: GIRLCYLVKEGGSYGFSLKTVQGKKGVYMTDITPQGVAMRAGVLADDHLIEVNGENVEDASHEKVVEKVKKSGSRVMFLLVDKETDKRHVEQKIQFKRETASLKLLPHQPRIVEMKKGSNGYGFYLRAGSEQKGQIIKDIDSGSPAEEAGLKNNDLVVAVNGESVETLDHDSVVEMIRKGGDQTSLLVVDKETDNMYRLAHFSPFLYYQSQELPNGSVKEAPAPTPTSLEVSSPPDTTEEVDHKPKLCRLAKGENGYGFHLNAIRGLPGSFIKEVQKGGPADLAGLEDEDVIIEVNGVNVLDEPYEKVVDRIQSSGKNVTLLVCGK

[5] = target: T5, K858 PDZ-GST fusion protein (Homo sapiens (Human), UniProt Q8WWI1 1038-1131)
T5 construct: Order of GST and PDZ part and limits not seen in the excerpts
T5 sequence: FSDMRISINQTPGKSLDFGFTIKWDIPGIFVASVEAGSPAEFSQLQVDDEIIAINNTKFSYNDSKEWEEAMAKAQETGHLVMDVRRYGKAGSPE

[6] = target: T6, GST-cytohesin binding protein PDZ domain fusion protein (Homo sapiens (Human), UniProt O60759 74-165)
T6 construct: also called CBP; not shown: glutathione S-transferase encoded by vector pGEX-3X (Pharmacia)
T6 sequence: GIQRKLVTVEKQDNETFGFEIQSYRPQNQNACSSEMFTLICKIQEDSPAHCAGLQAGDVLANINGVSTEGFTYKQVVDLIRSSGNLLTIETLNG

[7] = target: T7, GST-TAX-IP40 PDZ domain fusion protein (human, UniProt Q6B4M5 150-252 (rat entry))
T7 construct: also called TAX40; not shown: glutathione S-transferase encoded by vector pGEX-3X (Pharmacia)
T7 sequence: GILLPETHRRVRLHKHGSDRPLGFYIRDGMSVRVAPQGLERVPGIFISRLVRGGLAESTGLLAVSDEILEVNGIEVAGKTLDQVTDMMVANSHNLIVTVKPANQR

[8] = target: T8, GST-CASK PDZ domain fusion protein (Homo sapiens, UniProt O14936 486-575)
T8 construct: also called Homo sapiens CASK protein
T8 sequence: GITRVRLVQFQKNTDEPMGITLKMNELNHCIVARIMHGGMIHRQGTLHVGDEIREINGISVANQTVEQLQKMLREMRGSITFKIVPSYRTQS

[9] = target: T9, GST-prIL16 fusion protein (PDZ domains 1-2) (Homo sapiens (Human), UniProt Q14005 1111-1324)
T9 construct: also called putative interleukin 16 precursor; not shown: glutathione S-transferase encoded by vector pGEX-3X (Pharmacia)
T9 sequence: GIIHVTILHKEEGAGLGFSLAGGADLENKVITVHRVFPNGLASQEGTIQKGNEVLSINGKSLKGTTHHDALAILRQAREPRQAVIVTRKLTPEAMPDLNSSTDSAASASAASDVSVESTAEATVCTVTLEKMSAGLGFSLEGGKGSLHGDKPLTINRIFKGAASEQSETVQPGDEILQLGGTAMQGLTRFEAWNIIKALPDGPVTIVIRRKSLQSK

[10] = target: T10, NSP PDZ-GST fusion protein (Homo sapiens (Human), UniProt Q92743 370-466)
T10 construct: The label NSP is not explained in the excerpts
T10 sequence (Q92743 other isoform, or with tags, fused parts or gaps limits assumed): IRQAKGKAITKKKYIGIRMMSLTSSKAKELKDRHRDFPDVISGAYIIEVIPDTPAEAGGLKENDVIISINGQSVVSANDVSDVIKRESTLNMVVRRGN

[11] = target: T11, PICK1 PDZ-GST fusion protein (Bos taurus (Bovine), UniProt Q2T9M1 17-105)
T11 construct: Order of GST and PDZ part and limits not seen in the excerpts
T11 sequence (Q2T9M1 other isoform, or with tags, fused parts or gaps limits assumed): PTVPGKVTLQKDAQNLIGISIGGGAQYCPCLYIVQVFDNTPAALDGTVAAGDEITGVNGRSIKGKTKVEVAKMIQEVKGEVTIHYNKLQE

[12] = target: T12, NOS1 PDZ-GST fusion protein (Homo sapiens (Human), UniProt P29475 11-100)
T12 construct: Order of GST and PDZ part and limits not seen in the excerpts
T12 sequence (P29475 11-100 limits assumed): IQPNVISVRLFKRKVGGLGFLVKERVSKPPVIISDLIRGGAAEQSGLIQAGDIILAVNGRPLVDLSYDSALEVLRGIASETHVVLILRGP

[13] = target: T13, GST-mouse syntenin fusion protein (Mus musculus, UniProt O08992 108-286)
T13 construct: also called Mus musculus Syntenin; not shown: glutathione S-transferase encoded by vector pGEX-3X (Pharmacia)
T13 chain: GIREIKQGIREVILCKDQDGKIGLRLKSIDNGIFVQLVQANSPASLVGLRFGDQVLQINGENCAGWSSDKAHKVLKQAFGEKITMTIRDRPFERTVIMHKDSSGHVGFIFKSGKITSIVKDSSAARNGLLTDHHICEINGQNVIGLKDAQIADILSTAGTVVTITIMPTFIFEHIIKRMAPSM

[14] = target: T14, ConEn PDZ-GST fusion protein (Homo sapiens (Human), UniProt Q969H4 193-287)
T14 construct: The label ConEn is not explained in the excerpts
T14 sequence: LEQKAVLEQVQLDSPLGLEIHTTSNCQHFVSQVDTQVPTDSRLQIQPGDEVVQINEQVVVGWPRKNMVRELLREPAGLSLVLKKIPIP

Measured: binding result

B1: CD5 C-terminal peptide AA49L (peptide)
peptide: Biotin-SMQPDNSSDSDYDLHGAQRL
notes: Only the last four residues are seen in the excerpts
no binding: all assays above

Biotin-QGDPALQDAGDSSRKEYFI (also called GC) [Glycophorin C C-terminal peptide AA37L, biotinylated]
no binding: all assays above

Biotin-ISGTPTSTMVHGMTSSSSVV [Clasp-2 C-terminal peptide AA2L, biotinylated]
no binding: all assays above

Biotin-QATSENGHSARQHVVADTEL [CD34 C-terminal peptide AA7L, biotinylated]
no binding: all assays above

B2: PAG C-terminal peptide AA58L, biotinylated (peptide)
peptide: Biotin-KENDYESISDLQQGRDITRL
notes: also called Phosphoprotein Associated with GEMs
no binding: all assays above

Biotin-EVICYIEKPGVETLEDSVF [CDW125 (IL5R) C-terminal peptide AA28L, biotinylated]
no binding: all assays above

Biotin-KDSRPSFVGSSSGHTSTTL (also called CDW128E (IL8RB)) [CDW128B (IL8RB) C-terminal peptide AA29.2L, biotinylated]
no binding: all assays above
